From patent US20170129967A1 (CHEMOTHERAPEUTISCHES FORSCHUNGSINSTITUT GEORG SPEYER HAUS, published 2017) come the findings set out here.

For the test, the target named is human ErbB2 (HER2) expressed on cells (Renca-lacZ/ErbB2 murine renal cell carcinoma cells); MDA-MB453 human … (human, UniProt P04626 23-1255). Briefly: cell-based or functional assay.

B1: chimeric antigen receptor (CAR) 5.28.z, on the surface of clonal NK-92/5.28.z cells (receptor)
chain: QVQLQQSGPELKKPGETVKISCKASGYPFTNYGMNWVKQAPGQGLKWMGWINTSTGESTFADDFKGRFDFSLETSANTAYLQINNLKSEDSATYFCARWEVYHGYVPYWGQGTTVTVSSGGGGSGGGGSGGGGSDIQLTQSHKFLSTSVGDRVSITCKASQDVYNAVAWYQQKPGQSPKLLIYSASSRYTGVPSRFTGSGSGPDFTFTISSVQAEDLAVYFCQQHFRTPFTFGSGTKLEIKALSNSIMYFSHFVPVFLPAKPTTTPAPRPPTPAPTIASQPLSLRPEACRPAAGGAVHTRGLDKPFWVLVVVGGVLACYSLLVTVAFIIFWVRSKRSRLLHSDYMNMTPRRPGPTRKHYQPYAPPRDFAAYRSRVKFSRSADAPAYQQGQNQLYNELNLGRREEYDVLDKRRGRDPEMGGKPRRKNPQEGLYNELQKDKMAEAYSEIGMKGERRRGKGHDGLYQGLSTATKDTYDALHMQALPPR
As to B1, the “specific lysis at an E/T ratio of 10:1 (NK-92/5.28.z irradiated with 10 Gy, MDA-MB453 target cells, 2 h co-incubation)” value worked out at 65 % specific lysis.
